Positions count from the first letter of the chain named. Numbers in names are those of the source. One block for each binder: values may come before it.
How the values were obtained:
[1] = target: hFcyRIIIaV on hFcyRIIIaV-expressing Jurkat cells (human, UniProt P08637 17-254); assay: cell-based or functional assay
[2] = target: T1, hFcyRIIaH on hFcyRIIaH-expressing Jurkat cells (human, UniProt P12318 34-317); assay: cell-based or functional assay
T1 sequence (looked up): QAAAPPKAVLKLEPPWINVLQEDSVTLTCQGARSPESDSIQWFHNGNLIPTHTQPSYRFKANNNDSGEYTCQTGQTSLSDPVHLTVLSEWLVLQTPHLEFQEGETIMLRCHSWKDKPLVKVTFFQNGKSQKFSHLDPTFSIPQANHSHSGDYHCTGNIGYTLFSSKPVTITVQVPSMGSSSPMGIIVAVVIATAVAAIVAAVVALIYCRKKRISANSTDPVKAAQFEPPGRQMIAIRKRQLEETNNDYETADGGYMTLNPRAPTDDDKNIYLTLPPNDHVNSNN

[3] = target: T2, human FcγRIIa H extracellular domain (human, UniProt P12318 34-217); assay: SPR; KD for FcγRIIb divided by KD for this FcγR
T2 construct: extracellular domain; Made by the method of WO2014104165; also called hFcγR IIa H; FcyRIIaH
T2 sequence (looked up): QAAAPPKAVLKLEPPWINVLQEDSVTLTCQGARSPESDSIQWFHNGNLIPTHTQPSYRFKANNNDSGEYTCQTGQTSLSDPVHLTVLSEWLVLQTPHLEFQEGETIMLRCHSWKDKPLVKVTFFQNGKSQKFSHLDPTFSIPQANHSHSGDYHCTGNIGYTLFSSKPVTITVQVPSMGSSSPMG

[4] = target: T3, human FcγRIIIa F extracellular domain (human, UniProt P08637 17-208); assay: SPR; KD for FcγRIIb divided by KD for this FcγR
T3 construct: extracellular domain; Made by the method of WO2014104165; also called hFcγR IIIa F; FcyRIIIaF
T3 sequence (P08637 17-208): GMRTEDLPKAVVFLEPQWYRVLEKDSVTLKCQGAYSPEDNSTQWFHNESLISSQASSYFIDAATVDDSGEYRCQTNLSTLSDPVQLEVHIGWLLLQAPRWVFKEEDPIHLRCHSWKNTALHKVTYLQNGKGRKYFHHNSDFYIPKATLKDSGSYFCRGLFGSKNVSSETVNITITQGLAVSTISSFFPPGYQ

hFcyRIIIaV on hFcyRIIIaV-expressing Jurkat cells, sequence (P08637 17-254): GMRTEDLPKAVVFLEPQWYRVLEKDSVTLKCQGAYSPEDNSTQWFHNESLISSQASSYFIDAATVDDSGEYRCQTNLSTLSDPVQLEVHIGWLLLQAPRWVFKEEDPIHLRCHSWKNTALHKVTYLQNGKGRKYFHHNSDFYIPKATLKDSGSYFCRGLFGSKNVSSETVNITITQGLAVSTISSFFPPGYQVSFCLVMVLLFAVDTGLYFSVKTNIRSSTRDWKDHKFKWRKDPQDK

EC50 value (µg/mL), ADCC reporter bioassay (fold induction of luminescence), Hepa1-6/hEREG target cells [1]: 0.00167 µg/mL
EC50 value (µg/mL), ADCP reporter bioassay (fold induction of luminescence), Hepa1-6/hEREG target cells [2]: 0.0245 µg/mL
A/I ratio (KD for FcγRIIb divided by KD for each FcyR) [3]: 240
A/I ratio (KD for FcγRIIb divided by KD for each FcyR) [4]: 399
B2: H240-Kn462/L73-k0//H240-Hl441/L73-k0 (antibody, human IgG1, kappa)
heavy 1: QDQLVQSGAEVKKPGASVKVSCKASGFNIKDTYIQWVRQAPGQGLEWMGRIDPLRKQTKYREKFEGRVTITADTSTNTAYMELSSLRSEDTAVYYCVRSGREFDYWGQGTLVTVSSASTKGPSVFPLAPSSKSTSGGTAALGCLVKDYFPEPVTVSWNSGALTSGVHTFPAVLQSSGLYSLSSVVTVPSSSLGTQTYICNVNHKPSNTKVDKKVEPKSCDKTHTCPPCPAPEFQWGPMVFLFPPKPKDVLMISRTPEVTCVVVDVSDEEPEVKFNWYVDGVEVHNAKTKPREEQYNATYRVVSVLPVLHQDWLNGKEYKCKVSNDALPAPIEKTISKAKGQPREPQVCTLPPSRDELTKNQVSLWCLVKGFYPSDIAVEWESNGQPENNYKTTPPVLDSDGSFFLYSKLTVDKSRWQQGNVFSCSVMHEALHNHYTQKSLSLSP
heavy 2: QDQLVQSGAEVKKPGASVKVSCKASGFNIKDTYIQWVRQAPGQGLEWMGRIDPLRKQTKYREKFEGRVTITADTSTNTAYMELSSLRSEDTAVYYCVRSGREFDYWGQGTLVTVSSASTKGPSVFPLAPSSKSTSGGTAALGCLVKDYFPEPVTVSWNSGALTSGVHTFPAVLQSSGLYSLSSVVTVPSSSLGTQTYICNVNHKPSNTKVDKKVEPKSCDKTHTCPPCPAPELLAGPSVFLFPPKPKDVLMISRTPEVTCVVVDVSHEEPEVKFNWYVDGVEVHNAKTKPREEQYNATYRVVSVLPVLHQDWLNGKEYKCKVSNDALPAPIEETISKAKGQPREPQVYTLPPSRCELTKNQVSLSCAVKGFYPSDIAVEWESNGQPENNYKTTPPVLDSDGSFFLVSKLTVDKSRWQQGNVFSCSVMHEALHNHYTQKSLSLSP
light: DIQMTQSPSSLSASVGDRVTITCRASQDIHKYIAWYQQKPGQAPRLLIQYTSTLQPGVPSRFSGSGSGTDYTFTISSLQPEDIATYYCLQYEQLRTFGGGTKVEIKRTVAAPSVFIFPPSDEQLKSGTASVVCLLNNFYPREAKVQWKVDNALQSGNSQESVTEQDSKDSTYSLSSTLTLSKADYEKHKVYACEVTHQGLSSPVTKSFNRGEC
notes: also called EGL-ART5; ART5

EC50 value (µg/mL), ADCC reporter bioassay (fold induction of luminescence), Hepa1-6/hEREG target cells [1]: 0.000304 µg/mL
EC50 value (µg/mL), ADCP reporter bioassay (fold induction of luminescence), Hepa1-6/hEREG target cells [2]: 0.085 µg/mL
A/I ratio (KD for FcγRIIb divided by KD for each FcyR) [3]: 60.3
A/I ratio (KD for FcγRIIb divided by KD for each FcyR) [4]: 4310
B5: H240-Kn498/L73-k0//H240-Hl518/L73-k0 (antibody, human IgG1, kappa)
heavy 1: B2 heavy 1 with D325K, A329M
heavy 2: B2 heavy 2 with A235G, A329M
light: B2 light
notes: also called EGL-ART12; ART12

EC50 value (µg/mL), ADCC reporter bioassay (fold induction of luminescence), Hepa1-6/hEREG target cells [1]: 0.0015 µg/mL
EC50 value (µg/mL), ADCP reporter bioassay (fold induction of luminescence), Hepa1-6/hEREG target cells [2]: 0.0192 µg/mL
A/I ratio (KD for FcγRIIb divided by KD for each FcyR) [3]: 307
A/I ratio (KD for FcγRIIb divided by KD for each FcyR) [4]: 976
B6: H240-Kn462/L73-k0//H240-Hl445/L73-k0 (antibody, human IgG1, kappa)
heavy 1: B2 heavy 1
heavy 2: B2 heavy 2 with A329K, I331D
light: B2 light
notes: also called EGL-ART6; ART6

EC50 value (µg/mL), ADCC reporter bioassay (fold induction of luminescence), Hepa1-6/hEREG target cells [1]: 0.00107 µg/mL
EC50 value (µg/mL), ADCP reporter bioassay (fold induction of luminescence), Hepa1-6/hEREG target cells [2]: 0.0171 µg/mL
A/I ratio (KD for FcγRIIb divided by KD for each FcyR) [3]: 47.2
A/I ratio (KD for FcγRIIb divided by KD for each FcyR) [4]: 2350
B8: H240-Kn461/L73-k0//H240-Hl443/L73-k0 (antibody, human IgG1, kappa)
heavy 1: B2 heavy 1 with I331E
heavy 2: B2 heavy 2 with I331E
light: B2 light
notes: also called EGL-ART8; ART8

EC50 value (µg/mL), ADCC reporter bioassay (fold induction of luminescence), Hepa1-6/hEREG target cells [1]: 0.00208 µg/mL
EC50 value (µg/mL), ADCP reporter bioassay (fold induction of luminescence), Hepa1-6/hEREG target cells [2]: 0.0324 µg/mL
A/I ratio (KD for FcγRIIb divided by KD for each FcyR) [3]: 16.5
A/I ratio (KD for FcγRIIb divided by KD for each FcyR) [4]: 89.3
B9: H240-GASDALIE/L73-k0 (antibody, human IgG1, kappa)
heavy: QDQLVQSGAEVKKPGASVKVSCKASGFNIKDTYIQWVRQAPGQGLEWMGRIDPLRKQTKYREKFEGRVTITADTSTNTAYMELSSLRSEDTAVYYCVRSGREFDYWGQGTLVTVSSASTKGPSVFPLAPSSKSTSGGTAALGCLVKDYFPEPVTVSWNSGALTSGVHTFPAVLQSSGLYSLSSVVTVPSSSLGTQTYICNVNHKPSNTKVDKKVEPKSCDKTHTCPPCPAPELLAGPDVFLFPPKPKDTLMISRTPEVTCVVVDVSHEDPEVKFNWYVDGVEVHNAKTKPREEQYNSTYRVVSVLTVLHQDWLNGKEYKCKVSNKALPLPEEKTISKAKGQPREPQVYTLPPSRDELTKNQVSLTCLVKGFYPSDIAVEWESNGQPENNYKTTPPVLDSDGSFFLYSKLTVDKSRWQQGNVFSCSVMHEALHNHYTQKSLSLSP
light: B2 light

Second part, the binder before the results:

B1: H240-Kn443/L73-k0//H240-Hl408/L73-k0 (antibody, human IgG1, kappa)
heavy 1: B2 heavy 1 with V249T, P306T
heavy 2: B2 heavy 2 with V249T, P306T
light: B2 light
notes: also called EGL-ART3; ART3
EC50 value (µg/mL), ADCC reporter bioassay (fold induction of luminescence), Hepa1-6/hEREG target cells [1]: 0.00153 µg/mL
EC50 value (µg/mL), ADCP reporter bioassay (fold induction of luminescence), Hepa1-6/hEREG target cells [2]: 0.0158 µg/mL
A/I ratio (KD for FcγRIIb divided by KD for each FcyR) [3]: 181
A/I ratio (KD for FcγRIIb divided by KD for each FcyR) [4]: 396

B3: H240-Kn456/L73-k0//H240-Hl446/L73-k0 (antibody, human IgG1, kappa)
heavy 1: B2 heavy 1 with D325K, A329M, I331E
heavy 2: B2 heavy 2 with A329M, I331E
light: B2 light
notes: also called EGL-ART4; ART4
EC50 value (µg/mL), ADCC reporter bioassay (fold induction of luminescence), Hepa1-6/hEREG target cells [1]: 0.000789 µg/mL
EC50 value (µg/mL), ADCP reporter bioassay (fold induction of luminescence), Hepa1-6/hEREG target cells [2]: 0.0432 µg/mL
A/I ratio (KD for FcγRIIb divided by KD for each FcyR) [3]: 65.2
A/I ratio (KD for FcγRIIb divided by KD for each FcyR) [4]: 9940

B4: H240-Kn494/L73-k0//H240-Hl514/L73-k0 (antibody, human IgG1, kappa)
heavy 1: B2 heavy 1 with D325K, I331E
heavy 2: B2 heavy 2 with A235G, I331E
light: B2 light
notes: '1332E' read as I332E; also called EGL-ART10; ART10
EC50 value (µg/mL), ADCC reporter bioassay (fold induction of luminescence), Hepa1-6/hEREG target cells [1]: 0.000107 µg/mL
EC50 value (µg/mL), ADCP reporter bioassay (fold induction of luminescence), Hepa1-6/hEREG target cells [2]: 0.0419 µg/mL
A/I ratio (KD for FcγRIIb divided by KD for each FcyR) [3]: 17.3
A/I ratio (KD for FcγRIIb divided by KD for each FcyR) [4]: 3160

B7: H240-Kn037/L73-k0//H240-Hl036/L73-k0 (antibody, human IgG1, kappa)
heavy 1: B9 heavy with L329A, Y348C, T365W
heavy 2: B9 heavy with L329A, D355C, T365S, L367A, Y406V
light: B2 light
notes: also called EGL-GASDIE; GASDIE
EC50 value (µg/mL), ADCC reporter bioassay (fold induction of luminescence), Hepa1-6/hEREG target cells [1]: 0.0037 µg/mL
EC50 value (µg/mL), ADCP reporter bioassay (fold induction of luminescence), Hepa1-6/hEREG target cells [2]: 0.0149 µg/mL
A/I ratio (KD for FcγRIIb divided by KD for each FcyR) [3]: 18.2
A/I ratio (KD for FcγRIIb divided by KD for each FcyR) [4]: 18.9

From patent publication EP4361176A1 (CHUGAI SEIYAKU KABUSHIKI KAISHA, dated 2024)
